Source: article PMC5433843, “Protein Phosphatase 1 inactivates Mps1 to ensure efficient Spindle Assembly Checkpoint silencing” (eLife, 2017)

Molecular target: T1, MBP-PP1-87B (Drosophila, UniProt P12982 1-302)
T1 construct: Drosophila PP1-87B (orthologue of PP1-gamma); also called MBP-87B; Protein Phosphatase 1; source: E. coli BL21-star, purified with amylose magnetic beads
Test: pull-down; purified 6xHis-N-Mps1 fragments incubated with MBP or MBP-PP1-87B bound to amylose magnetic beads; column buffer 250 mM NaCl, 20 mM Tris-HCl pH 7.4, 1 mM EDTA, 1 mM DTT; 60 min, room temperature; western blot
Details: both partners purified

T1 sequence (P12982 whole entry): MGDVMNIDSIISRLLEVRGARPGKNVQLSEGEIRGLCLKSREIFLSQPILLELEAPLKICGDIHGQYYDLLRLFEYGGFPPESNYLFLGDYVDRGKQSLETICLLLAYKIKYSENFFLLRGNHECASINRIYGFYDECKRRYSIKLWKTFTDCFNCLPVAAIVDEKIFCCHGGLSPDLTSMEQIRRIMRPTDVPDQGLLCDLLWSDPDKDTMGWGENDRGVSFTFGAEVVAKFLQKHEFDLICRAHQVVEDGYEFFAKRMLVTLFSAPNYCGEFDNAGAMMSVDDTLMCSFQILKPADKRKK

B1: 6xHis-N-Mps1^WT (domain or fragment, Drosophila, UniProt Q9VEH1 104-330, looked up)
chain: PSQELTNSNSNITTRRTPSAAPLKQSDSNLSFLGRFNDMGINCSSQGSPVANSEKQVAKKTAPTLQAAPSATERRPLQETETPLRNELPSTSKTKPDADFITPQVRTIGSTLAGKSRSAVSNDFRAQKVLFQTPMTVSRAAPVASDSISFSLCDTITESPDIPEPPKKAEPPKSQHPSKKSLDHVFRESDKDNVPDKVDNVEPKELVSIPAVAVPPEQPSHKTSNIL
notes: Drosophila Mps1, N-terminus 104-330 amino acids, cloned into KpnI/XhoI sites of pET30a(+); pET30a(+) may add further vector-coded residues (S-tag) besides the His tag; also called Mps1 N-terminus region (104-330 amino acids); source: E. coli BL21-star, purified with Novex Dynabeads, eluted with imidazole
- binding result: binds
